Results reported in US20090083877A1, “Transcription Factors, DNA and Methods for Introduction of Value-Added Seed Traits and Stress Tolerance” (priority 2002, published 2009).
Entries after “also recorded” stand apart in the source; their conditions may differ. Like-named read-outs stand apart in the source and are kept apart here.

B1: VP1: maize VIVIPAROUS-1 B3-domain transcription factor, SEQ ID NO 1 and 2, expressed from 35S promoter (protein)
chain: MEASSGSSPPHSQENPPEHGGDMGGAPAEEIGGEAADDFMFAEDTFPSLPDFPCLSSPSSSTFSSNSSSNSSSAYTNTAGRAGGEPSEPASAGEGFDALDDIDQLLDFASLSMPWDSEPFPGVSMMLENAMSAPPQPVGDGMSEEKAVPEGTTGGEEACMDASEGEELPRFFMEWLTSNRENISAEDLRGIRLRRSTIEAAAARLGGGRQGTMQLLKLILTWVQNHHLQRKRPRDVMEEEAGLHVQLPSPVANPPGYEFPAGGQDMAAGGGTSWMPHQQAFTPPAAYGGDAVYPSAAGQQYSFHQGPSTSSVVVNSQPFSPPPVGDMHGANMAWPQQYVPFPPPGASTGSYPMPQPFSPGFGGQYAGAGAGHLSVAPQRMAGVEASATKEARKKRMARQRRLSCLQQQRSQQLSLGQIQTSVHLQEPSPRSTHSGPVTPSAGGWGFWSPSSQQQVQNPLSKSNSSRAPPSSLEAAAAAPQTKPAPAGARQDDIHHRLAAASDKRQGAKADKNLRFLLQKVLKQSDVGSLGRIVLPKKEAEVHLPELKTRDGISIPMEDIGTSRVWNMRYRFWPNNKSRMYLLENTGEFVRSNELQEGDFIVIYSDVKSGKYLIRGVKVRPPPAQEQGSGSSGGGKHRPLCPAGPERAAAAGAPEDAVVDGVSGACKGRSPEGVRRVRQQGAGAMSQMAVSI
modifications: Zea mays
B2: AREB3: Arabidopsis ABI5-like bZIP transcription factor, At3g56850 (protein, listed as Arabidopsis thaliana)
chain: MDSQRGIVEQAKSQSLNRQSSLYSLTLDEVQNHLGSSGKALGSMNLDELLKSVCSVEANQPSSMAVNGGAAAQEGLSRQGSLTLPRDLSKKTVDEVWKDIQQNKNGGSAHERRDKQPTLGEMTLEDLLLKAGVVTETIPGSNHDGPVGGGSAGSGAGLGQNITQVGPWIQYHQLPSMPQPQAFMPYPVSDMQAMVSQSSLMGGLSDTQTPGRKRVASGEVVEKTVERRQKRMIKNRESAARSRARKQAYTHELEIKVSRLEEENERLRKQKEVEKILPSVPPPDPKRQLRRTSSAPF
B3: DPBF4/EEL: Arabidopsis ABI5-like bZIP transcription factor, Enhanced Em Level, At2g41070 (protein, listed as Arabidopsis thaliana)
chain: MGSIRGNIEEPISQSLTRQNSLYSLKLHEVQTHLGSSGKPLGSMNLDELLKTVLPPAEEGLVRQGSLTLPRDLSKKTVDEVWRDIQQDKNGNGTSTTTTHKQPTLGEITLEDLLLRAGVVTETVVPQENVVNIASNGQWVEYHHQPQQQQGFMTYPVCEMQDMVMMGGLSDTPQAPGRKRVAGEIVEKTVERRQKRMIKNRESAARSRARKQAYTHELEIKVSRLEEENEKLRRLKEVEKILPSEPPPDPKWKLRRTNSASL
B4: RAV2: Arabidopsis ABI3-Like B3 domain transcription factor, At1g68840, SEQ ID NO 3 and 4 (protein, listed as Arabidopsis thaliana)
chain: MDSSCIDEISSSTSESFSATTAKKLSPPPAAALRLYRMGSGGSSVVLDPENGLETESRKLPSSKYKGVVPQPNGRWGAQIYEKHQRVWLGTFNEQEEAARSYDIAACRFRGRDAVVNFKNVLEDGDLAFLEAHSKAEIVDMLRKHTYADELEQNNKRQLFLSVDANGKRNGSSTTQNDKVLKTREVLFEKAVTPSDVGKLNRLVIPKQHAEKHFPLPSPSPAVTKGVLINFEDVNGKVWRFRYSYWNSSQSYVLTKGWSRFVKEKNLRAGDVVTFERSTGLERQLYIDWKVRSGPRENPVQVVVRLFGVDIFNVTTVKPNDVVAVCGGKRSRDVDDMFALRCSKKQAIINAL

Experiments:
[1] = test system: ABA-inducible wheat Em promoter; assay: Em-GUS reporter transactivation in transiently transformed maize mesophyll protoplasts; format: cell-based; conditions: for Transactivation of Em-GUS expression by overexpressed effector: effector overexpressed alone
Method: Plant Materials. Maize mesophyll protoplasts were isolated from 20-hr illuminated leaves of 10 day old maize seedlings that had been kept in the dark at 25° C. The middle part of the second leaves (about 6 cm in length) was cut into 0.5 mm strips with a razor blade and digested in an enzyme solution containing 1% (w/v) cellulose RS, 0.1% (w/v) macerozyme R10 (Yakult Honsha, Nishinomiya, Japan), 0.6 M mannitol, 10 mM MES (pH 5.7), 1 mM CaCl2, 1 mM MgCl2, 10 mM β-mercaptoethanol, and 0.1% BSA (w/v) for 3 hr at room temperature. Protoplasts were released by shaking on a rotary shaker at 80 rpm for 10 min and were filtered through a 70 μm nylon filter. Protoplasts were collected by centrifugation at 100 g for 2 min, washed in cold 0.6 M mannitol solution, centrifuged, and resuspended at 2×10^6/mL in cold 0.6 M mannitol. Electroporation conditions were 400 V/cm, 200 μF, 10 msec, and two pulses with a Biorad GenePulser apparatus. Each sample contained 5×10^4 protoplasts and about 50 μg DNA in 0.3 mL of 0.6 M mannitol and 20 mM KCl.
(§1) Plasmid pBM207 contains the wheat (Triticum aestivum) Early Methionine-labeled (Em) promoter driving the expression of GUS, encoded by uida from Escherichia coli. Plasmid pDH359 contains ABI5 cDNA driven by Ubiquitin promoter. Plasmid pCR349.13S contains the 35S promoter driving the VP1 sense cDNA. Plasmid pDirect2.6 contains the Ubi promoter in a reverse orientation and was used as control construct to balance the total amount of input plasmid DNA between various treatments. Plasmid pAHC 18 contains the Ubi promoter driving firefly (Photinus pyralis) LUC cDNA and was included in transformations to provide an internal reference for non-ABA-inducible transient transcription in reporter enzyme assays. ABF1-ABF4, AREB3, and DPBF4 were amplified by PCR using gene-specific primers from an Arabidopsis cDNA library (Minet et al. Plant J. 2:417 (1992)) and were cloned into plasmid pDH349 (Gampala et al. J. Biol. Chem. 277: 1689 (2002)) containing the maize Ubiquitin promoter and nopaline synthase 3′ termination signals.
The values in FIG. 2 are the average (±S.E.M.) of four replicate transformations.
To test the involvement of ABI3-Like B3 domain transcription factors in ABA signaling, ABA-inducible reporter gene transactivation by the B3 domain-containing RAV2 was assayed in maize mesophyll protoplasts transiently co-transformed with a full length cDNA under transcriptional control of the Ubiquitin promoter. Activation of Em-GUS reporter gene expression by RAV2, relative to non-ABA inducible Ubi-LUC reference reporter as internal control, and functional interactions of RAV2 with VP1, ABI5, and the ABI5-Like ABF3 were compared in protoplasts treated with or without 100 uM ABA (see FIG. 3).

[2] = test system: ABA-inducible wheat Em promoter; assay: Em-GUS reporter transactivation in transiently transformed rice protoplasts; format: cell-based, Oryza sativa; conditions: for Synergy with exogenous ABA on Em-GUS expression: 100 μM ABA, 16 h; for Transactivation of Em-GUS expression by overexpressed effector: effector overexpressed alone, average of four replicate transformations
Method: Embryonic rice (Oryza sativa) callus cultures (Radon 6 from the International Rice Research Institute, Los Bafios, Phillipines) were obtained. Embryonic rice callus cultures were grown as suspensions in liquid culture as well as on phytagel plates containing MS medium supplemented with 2.0 mg/L 2,4-D. Cultures were propagated and digested for making protoplasts as previously described except that 10 mM HEPES (Sigma, St. Louis, Mo., USA), pH 5.6, was substituted for phosphate in the Krens'F medium, and 2% (weight/volume; w/v) cellulase YC, 0.35% (w/v) macerozyme, and 0.1% (w/v) pectolyase Y23 were used for overnight digestion (Karlan Research Products, Santa Rosa, CA, USA). Protoplasts were transformed with various mixtures of DNA reporter and effector constructs using polyethylene glycol precipitation. Transformed protoplasts were incubated with or without 100 μM ABA for 16 h in the dark in Krens solution before quantifying β-glucuronidase (GUS) and luciferase (LUC) reporter enzyme activities as previously described. ABA was dissolved and stored in absolute ethanol at −20° C. as a 0.1 M stock solution. Prior to use, required dilutions of ABA were made in Krens solution, and control samples received the same volume of solvent as in ABA treatments.
as §1
Simultaneously, it has been shown that ABF2, ABF3 and ABF4 overexpression in transgenic Arabidopsis results in ABA hypersensitivity and other ABA-associated phenotypes such as altered ABA-inducible gene expression and glucose signaling, reduced transpiration, and enhanced drought tolerance. The functional roles of the ABI5-like family members ABF1-ABF4 in regulation of ABA-inducible gene expression in rice protoplasts were tested and the results are shown in FIG. 1. […] Protoplasts were transformed with Em-GUS and a “dummy” effector construct (pD2.6 containing only the Ubiquitin promoter used to drive effector expression) or co-transformed with a Ubi-ABF construct and treated with or without 100 μM ABA. The values shown in FIG. 1A are the average (±S.E.M.) of four replicate transformations.
Rice protoplasts were transformed with either Em-GUS alone or in pairwise combinations of Ubi-ABF3, Ubi-ABI5, or 35S-VP1. The values in FIG. 1B are the average (±S.E.M.) of four replicate transformations. ABF3 is a related member of the ABI5-family of bZIP transcription factors.

| Molecule | Synergy with co-transformed VP1 on Em-GUS expression [1] | Synergy with exogenous ABA on Em-GUS expression [1] | Transactivation of Em-GUS expression by overexpressed effector ([1]; maize mesophyll protoplasts) | Synergy with exogenous ABA on Em-GUS expression [2] | Transactivation of Em-GUS expression by overexpressed effector [2] | other results |
| --- | --- | --- | --- | --- | --- | --- |
| ABI5: Arabidopsis basic leucine zipper (bZIP) domain transcription factor, At2g36270, SEQ ID NO 5 and 6 | can synergize with co-transformed VP1 | synergize with exogenous ABA | sufficient for transactivation of the Em promoter; also recorded: sufficient for specific Em-GUS transactivation; also recorded: sufficient to transactivate Em-GUS expression | acted in synergy with ABA | transactivated the Em promoter |  |
| B1 |  |  |  | acted in synergy with ABA | transactivated the Em promoter |  |
| B2 | no functional interactions with VP1 and not | synergize with exogenous ABA | sufficient to transactivate Em-GUS expression |  |  |  |
| B3 |  |  | sufficient to transactivate Em-GUS expression |  |  | Synergy with co-transformed VP1 on Em-GUS expression ([1]; maize mesophyll protoplasts, co-transformed with VP1): some antagonism of ABA inducible Em-GUS expression and not; Synergy with exogenous ABA on Em-GUS expression ([1]; maize mesophyll protoplasts, exogenous ABA): synergize with exogenous ABA |
| B4 |  |  | sufficient for specific Em-GUS transactivation |  |  | Effect of ABA on synergism with VP1 [1]: enhanced by ABA; Synergy with ABF3 on Em-GUS expression [1]: synergizes; also recorded: interacts synergistically; Synergy with ABI5 on Em-GUS expression [1]: synergizes; also recorded: interacts synergistically; Synergy with VP1 on Em-GUS expression [1]: act synergistically to activate Em-GUS expression; also recorded: interacts synergistically; Effect of co-transformed ABA-INSENSITIVE-1 dominant negative allele on transactivation ([1]; maize mesophyll protoplasts, data not shown): antagonized |
